{
  "source": "patent US20190330665A1",
  "molecular_target": "T7 RNA polymerase (UniProt P00573)",
  "test": "cell-based or functional assay",
  "data": [
    {"substance": "catalytically-deactivated variant of T7 lysozyme (LysY) (from UniProt P00806 2-151)", "values": [
      {"measurement": "decrease in basal mNeonGreen expression in exponential phase (PT7:mNeonGreen reporter, PurtA:T7pol biosensor strain)", "result": 78, "unit": "%"}
    ]}
  ]
}
